Patent publication US7033991
Where two headings read alike, the source gives them in different places. No end group written: not given here.

Experiments:
Details in all cases: modification not given
[1] = target: T1, PC1, P29120
T1 chain: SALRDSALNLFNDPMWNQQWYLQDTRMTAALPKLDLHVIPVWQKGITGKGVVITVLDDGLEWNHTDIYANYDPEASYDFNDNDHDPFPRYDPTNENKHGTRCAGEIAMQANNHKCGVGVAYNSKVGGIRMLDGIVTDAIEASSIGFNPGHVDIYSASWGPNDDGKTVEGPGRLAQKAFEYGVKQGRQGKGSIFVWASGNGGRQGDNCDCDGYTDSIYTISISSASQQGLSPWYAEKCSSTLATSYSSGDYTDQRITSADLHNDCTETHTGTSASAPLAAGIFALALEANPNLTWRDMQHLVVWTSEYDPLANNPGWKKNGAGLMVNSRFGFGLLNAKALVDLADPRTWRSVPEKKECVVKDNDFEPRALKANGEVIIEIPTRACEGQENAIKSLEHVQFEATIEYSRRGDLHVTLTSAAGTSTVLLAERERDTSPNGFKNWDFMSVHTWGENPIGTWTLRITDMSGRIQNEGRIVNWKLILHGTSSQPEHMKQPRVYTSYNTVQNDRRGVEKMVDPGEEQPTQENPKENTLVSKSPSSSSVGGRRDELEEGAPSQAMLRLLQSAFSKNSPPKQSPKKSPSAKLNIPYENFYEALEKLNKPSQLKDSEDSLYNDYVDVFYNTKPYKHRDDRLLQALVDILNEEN

[2] = target: T2, PACE4, P29122
T2 chain: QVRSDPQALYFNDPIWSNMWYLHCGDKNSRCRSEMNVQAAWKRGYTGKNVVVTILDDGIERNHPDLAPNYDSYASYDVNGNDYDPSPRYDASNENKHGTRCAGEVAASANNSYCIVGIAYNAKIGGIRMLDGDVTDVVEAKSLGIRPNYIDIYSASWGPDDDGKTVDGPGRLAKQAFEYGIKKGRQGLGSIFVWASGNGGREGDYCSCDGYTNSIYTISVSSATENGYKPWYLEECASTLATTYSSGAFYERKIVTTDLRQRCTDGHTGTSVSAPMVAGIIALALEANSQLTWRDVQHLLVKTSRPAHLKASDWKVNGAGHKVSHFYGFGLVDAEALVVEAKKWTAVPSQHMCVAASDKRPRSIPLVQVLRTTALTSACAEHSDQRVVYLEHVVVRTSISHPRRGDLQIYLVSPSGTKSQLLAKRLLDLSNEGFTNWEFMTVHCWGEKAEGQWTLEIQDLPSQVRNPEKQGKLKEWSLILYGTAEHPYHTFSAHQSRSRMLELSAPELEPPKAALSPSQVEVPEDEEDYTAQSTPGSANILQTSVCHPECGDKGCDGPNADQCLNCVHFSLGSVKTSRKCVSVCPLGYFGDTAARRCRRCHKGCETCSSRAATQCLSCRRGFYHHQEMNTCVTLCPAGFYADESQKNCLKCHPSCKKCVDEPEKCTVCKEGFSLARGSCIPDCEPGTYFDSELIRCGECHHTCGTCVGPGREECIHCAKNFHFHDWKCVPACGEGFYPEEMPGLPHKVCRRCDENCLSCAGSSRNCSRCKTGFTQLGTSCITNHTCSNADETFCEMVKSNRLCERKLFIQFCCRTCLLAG

[3] = target: T3, Furin (recombinant, truncated) (mouse), P23188
T3 chain: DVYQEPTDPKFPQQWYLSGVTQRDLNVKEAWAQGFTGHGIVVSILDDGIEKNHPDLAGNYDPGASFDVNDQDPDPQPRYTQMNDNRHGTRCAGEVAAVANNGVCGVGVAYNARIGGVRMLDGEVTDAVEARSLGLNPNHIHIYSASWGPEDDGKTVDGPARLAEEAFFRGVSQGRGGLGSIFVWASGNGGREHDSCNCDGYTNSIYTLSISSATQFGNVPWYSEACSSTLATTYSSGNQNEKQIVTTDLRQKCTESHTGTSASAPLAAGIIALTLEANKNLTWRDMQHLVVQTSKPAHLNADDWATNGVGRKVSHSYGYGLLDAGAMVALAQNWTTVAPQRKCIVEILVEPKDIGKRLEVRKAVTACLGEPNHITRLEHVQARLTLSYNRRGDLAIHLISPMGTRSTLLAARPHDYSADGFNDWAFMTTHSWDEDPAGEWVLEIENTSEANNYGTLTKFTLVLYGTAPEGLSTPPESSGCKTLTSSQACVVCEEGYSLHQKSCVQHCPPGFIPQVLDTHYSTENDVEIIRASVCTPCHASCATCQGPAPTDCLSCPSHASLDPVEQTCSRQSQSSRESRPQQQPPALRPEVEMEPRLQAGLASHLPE

[4] = target: T3, Furin (recombinant, truncated) (mouse), …
[5] = target: T4, PC2, P16519
T4 chain: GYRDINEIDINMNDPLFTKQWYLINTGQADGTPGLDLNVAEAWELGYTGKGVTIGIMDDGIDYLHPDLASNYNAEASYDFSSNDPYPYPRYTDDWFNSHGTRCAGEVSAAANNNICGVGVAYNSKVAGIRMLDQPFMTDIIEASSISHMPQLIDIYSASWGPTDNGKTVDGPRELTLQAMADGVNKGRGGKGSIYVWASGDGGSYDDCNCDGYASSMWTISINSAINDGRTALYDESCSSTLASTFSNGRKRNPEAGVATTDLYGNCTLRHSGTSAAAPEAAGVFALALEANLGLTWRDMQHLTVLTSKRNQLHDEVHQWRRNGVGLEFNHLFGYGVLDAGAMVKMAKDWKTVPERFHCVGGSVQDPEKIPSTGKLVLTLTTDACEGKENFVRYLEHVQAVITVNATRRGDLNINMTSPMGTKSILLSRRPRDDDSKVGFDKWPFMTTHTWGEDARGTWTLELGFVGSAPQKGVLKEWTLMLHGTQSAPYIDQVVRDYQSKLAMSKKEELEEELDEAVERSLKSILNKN

[6] = target: T3, Furin (recombinant, truncated) (mouse), …
[7] = target: T4, PC2, P16519
[8] = target: T4, PC2, P16519
[9] = target: T3, Furin (recombinant, truncated) (mouse), …
[10] = target: T3, Furin (recombinant, truncated) (mouse), …
[11] = target: T4, PC2, P16519
[12] = target: T5, PC7, Q16549
T5 chain: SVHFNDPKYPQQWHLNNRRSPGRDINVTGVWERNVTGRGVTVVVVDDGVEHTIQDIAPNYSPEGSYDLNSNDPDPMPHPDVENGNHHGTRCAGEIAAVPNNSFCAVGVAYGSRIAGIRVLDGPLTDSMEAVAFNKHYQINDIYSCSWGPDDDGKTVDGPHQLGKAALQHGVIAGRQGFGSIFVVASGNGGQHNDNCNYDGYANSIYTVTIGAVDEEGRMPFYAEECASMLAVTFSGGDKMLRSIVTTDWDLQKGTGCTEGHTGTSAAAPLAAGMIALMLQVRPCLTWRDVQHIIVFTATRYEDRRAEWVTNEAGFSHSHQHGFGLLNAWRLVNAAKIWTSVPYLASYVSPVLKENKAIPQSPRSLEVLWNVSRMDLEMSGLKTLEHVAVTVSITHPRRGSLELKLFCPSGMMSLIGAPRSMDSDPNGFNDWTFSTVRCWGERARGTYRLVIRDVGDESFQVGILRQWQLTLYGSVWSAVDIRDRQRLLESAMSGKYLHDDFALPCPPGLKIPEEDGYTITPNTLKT

[13] = target: T4, PC2, P16519
[14] = target: T3, Furin (recombinant, truncated) (mouse), …
[15] = target: T2, PACE4, P29122
[16] = target: T3, Furin (recombinant, truncated) (mouse), …
[17] = target: T1, PC1, P29120
[18] = target: T3, Furin (recombinant, truncated) (mouse), …
[19] = target: T1, PC1, P29120
[20] = target: T2, PACE4, P29122

For RRRR [Tetra-L-arginine], which Ki [1] is on record?
The Ki was greater than 200 µM.

And the Ki [2]?
The Ki was greater than 200 µM.

What about the Ki [3] of the same binder?
Its Ki is 6.4 µM.

Which results are given for Ac-MHKRRR-NH2 [Ac-MHKRRR-NH2]?
Ki [4]: 10.3 µM; Ki [5]: 216 µM

Ac-HHKRRR-NH2 [Ac-HHKRRR-NH2] was tested. Which Ki [6] did it give?
The Ki was 13.2 µM.

And the Ki [7]?
Its Ki is 235 µM.

What does the source list for Ac-MRKRRR-NH2 [Ac-MRKRRR-NH2]?
Ki [8]: 1500 µM; Ki [9]: 2.3 µM

Which Ki [10] does the source give for LLRVKR here?
The Ki was 0.42 µM.

What about the Ki [11] of the same binder?
The Ki was 3.7 µM.

QQVAKRRTKR [Furin propeptide fragment] was tested. Which Ki [12] did it give?
The Ki was 0.5 µM.

Which Ki [13] does the source give for LLRVKR-NH2 [LLRVKR-NH2] here?
The Ki was 2.3 µM.

And the Ki [14]?
The Ki was 0.8 µM.

Which Ki [15] does the source give for RRRRRR [Hexa-L-arginine] here?
The Ki was 0.52 µM.

And the Ki [16]?
Its Ki is 0.114 µM.

What about the Ki [17] of the same binder?
Its Ki is 3.9 µM.

RRRRRRR [Hepta-L-arginine] was tested. Which Ki [18] did it give?
Its Ki is 0.068 µM.

What about the Ki [19] of the same binder?
The Ki was 5.2 µM.

And the Ki [20]?
The Ki was 0.24 µM.
